# T1: human CCR8 N-terminal domain-mouse Fc tag fusion protein (human (CCR8 part), mouse IgG2a Fc)
# T1 construct: also called huCCR8-N-mIgG2a; human CCR8 N-terminal protein
# T1 chain: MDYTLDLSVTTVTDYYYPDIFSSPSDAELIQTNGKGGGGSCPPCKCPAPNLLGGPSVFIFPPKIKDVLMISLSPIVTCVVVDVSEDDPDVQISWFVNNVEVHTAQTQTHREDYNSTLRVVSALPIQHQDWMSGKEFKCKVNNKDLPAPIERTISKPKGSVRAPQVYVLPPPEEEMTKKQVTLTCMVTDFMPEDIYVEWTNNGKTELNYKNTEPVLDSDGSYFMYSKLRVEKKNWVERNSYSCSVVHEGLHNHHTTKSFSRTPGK
# T2: mouse CCR8 (mouse, UniProt P56484 1-353)
# T2 construct: Full length, transiently expressed on Expi293 cells; also called muCCR8; CCR8-mo8
# T2 sequence: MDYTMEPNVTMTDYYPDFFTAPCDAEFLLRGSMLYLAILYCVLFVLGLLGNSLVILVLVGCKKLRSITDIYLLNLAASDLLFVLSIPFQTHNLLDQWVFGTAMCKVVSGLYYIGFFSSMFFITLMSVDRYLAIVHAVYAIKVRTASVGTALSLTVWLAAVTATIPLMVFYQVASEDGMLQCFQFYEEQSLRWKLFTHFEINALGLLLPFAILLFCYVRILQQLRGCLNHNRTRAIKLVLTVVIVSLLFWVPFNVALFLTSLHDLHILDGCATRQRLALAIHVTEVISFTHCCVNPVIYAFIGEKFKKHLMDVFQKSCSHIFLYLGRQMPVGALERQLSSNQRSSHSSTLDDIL
# B1: hu305-5W-3a (antibody, V domains shown)
# VH: QVQLKQSGPGLVKPSETLSLTCTVSGFSLAVYGVHWVRQPPGKGLEWLGVIWRGGTTDYNPSLKSRLTFSKDSSKSQVSLKLSSVTAADTAVYYCAKNRVTTVVAPNFYAMDYWGQGTLVTVSS
# VL: DIVMTQSPDSLAVSLGERATINCKSSQSLLYSGNQKNYLAWYQQKPGQPPKLLIYWASTRKSGVPDRFSGSGSGTDFTLTISSLKAEDVAVYYCQQYYTYPLTFGQGTRLEIK
# B2: Ch305 (antibody, V domains shown)
# VH: QVQMKQSGPSLVQPSQSLSITCTVSGFSLTSYGVHWVRQSPGKGLEWLGVIWRGGTTDYNAAFMSRLSFTKDSSKSQVFFKLNSLQADDTAIYYCAKNRVTTVVAPNFYAMDYWGQGTSVTVSS
# VL: DIVMTQSPSSLAVSVGEKVTMSCKSSQSLLYSGNQKNYLAWYQQKPGQSPKLLIYWASTRKSGVPDRLTGSGSGTDFTLTISSVKAEDLAAYYCQQYYTYPLTFGAGTRLEIK
# Columns and labels:
# [1] = target: T3, huCCR8 L269A (human, UniProt P51685 1-355); assay: flow cytometry, transfected Expi293 cells, serial dilution from 200 nM
# T3 construct: Point mutant on transfected Expi293 cells
# Protocol: (§1) In comparison, the 10A11 reference antibody recognizes D14, Y17, D19 on the N-terminal domain of huCCR8 as the mutation on these sites totally abolished the binding, indicating no overlap in epitope between the reference antibody 10A11 and hu305-5W-3a. To further confirm the critical roles of these sites for binding, the transfected Expi293 cells were stained with a serial dilution of hu305-5W-3a from 200 nM followed by detection with Alexa Fluor 647 Rabbit Anti-Human IgG (Cat.: 309-605-008 Jackson ImmunoResearch) to obtain a full binding curve. […] D178 and M266 are considered as 2nd tier epitopes having media impact on Hu305-5W-3a binding. Substitution them with Ala will lead to ˜3 folds decrease of EC50.
# [2] = target: T4, huCCR8 D178A (human, UniProt P51685 1-355); assay: as above
# T4 construct: Point mutant on transfected Expi293 cells
# Protocol: as §1
# [3] = target: T5, huCCR8 E177A (human, UniProt P51685 1-355); assay: as above
# T5 construct: Point mutant on transfected Expi293 cells
# Protocol: as §1
# [4] = target: T6, huCCR8 D26A (human, UniProt P51685 1-355); assay: as above
# T6 construct: Point mutant on transfected Expi293 cells
# Protocol: as §1
# [5] = target: T7, huCCR8 Y172A (human, UniProt P51685 1-355); assay: as above
# T7 construct: Point mutant on transfected Expi293 cells
# Protocol: as §1
# [6] = target: T8, huCCR8 M266A (human, UniProt P51685 1-355); assay: as above
# T8 construct: Point mutant on transfected Expi293 cells
# Protocol: as §1
# [7] = target: T9, human CCR8 (human, UniProt P51685 1-355); assay: as above
# T9 construct: Full length; also called huCCR8; C-C motif chemokine receptor 8
# Protocol: as §1
# [8] = target: T3, huCCR8 L269A; assay: flow cytometry, transfected Expi293 cells, antibody at 50, 10 and 1 nM
# Protocol: (§2) To more precisely determine the specific amino acid residues that are crucial for antibody binding to human CCR8, point mutations were introduced to ECL2, ECL3 and N-terminal regions of human CCR8, as shown in the first column of Table 19. To evaluate the impact of each mutant, humanized anti-CCR8 antibody hu305-5W-3a was used to react with transfected Expi293 cells as described above with the concentration of 50 nM, 10 nM and 1 nM (results summarized in Table 19). The critical amino acids for hu305-5W-3a binding are marked with an “X” indicating a loss of >50% compared with wild type huCCR8, which is considered significant.
# [9] = target: T4, huCCR8 D178A; assay: as above
# Protocol: as §2
# [10] = target: T5, huCCR8 E177A; assay: as above
# Protocol: as §2
# [11] = target: T6, huCCR8 D26A; assay: as above
# Protocol: as §2
# [12] = target: T7, huCCR8 Y172A; assay: as above
# Protocol: as §2
# [13] = target: T8, huCCR8 M266A; assay: as above
# Protocol: as §2
# [14] = target: T10, Cynomolgus Monkey CCR8 (cynomolgus monkey, UniProt O97665 1-356 (rhesus entry)); assay: flow cytometry, 293T-cynoCCR8 cells
# T10 construct: also called cyno CCR8; cynoCCR8
# Source text: (§3) After washing twice with FACS buffer, cells were resuspended with FACS buffer and acquired on a Beckton Dickinson LSR Fortessa™. Titration curves were generated using sigmoid dose-response of nonlinear fit from GraphPad, and the EC50s of representative antibodies are shown in Table 2.
# [15] = target: T1, human CCR8 N-terminal domain-mouse Fc …; assay: ELISA, plate coated with human CCR8 N-terminal domain-Fc fusion
# Protocol: To determine whether anti-CCR8 antibodies bind to the N-terminal domain of human CCR8, ELISA plates were coated with human CCR8 N-terminal domain-mouse Fc tag fusion protein (SEQ ID NO: 28 and 29) overnight at 4° C. After washing and blocking, serially diluted anti-CCR8 antibodies were added to plates and incubated for 1 hour at room temperature. After washing, diluted HRP goat anti-human IgG Fc or HRP goat anti-mouse kappa chain (for 433H) secondary antibodies were added to plates and incubated for 45 minutes at room temperature. After washing, TMB substrate was added to plates for developing and then stopped by adding TMB substrate stop solution. The absorbance was read at 450 nm using a plate reader. […] It is a non CCR8 N-terminal loop binder.
# [16] = target: T9, human CCR8; assay: flow cytometry, 293T-huCCR8 cells
# Source text: as §3
# [17] = target: T9, human CCR8; assay: flow cytometry, Jurkat-human CCR8 cells
# Protocol: To evaluate the binding activity of anti-CCR8 antibodies to bind CCR8 expressed on living cells, Jurkat cells were engineered to over-express human CCR8. Jurkat-human CCR8 cells were seeded in 96-well plate and incubated with a series of dilutions of anti-CCR8 antibodies. Goat anti-human IgG was used as secondary antibody to detect antibody binding to the cell surface. EC50 values for dose-dependent binding to human CCR8 were determined by fitting the dose-response data to the four-parameter logistic model with GraphPad Prism. As shown in Table 4 and FIG. 3 the CCR8 antibodies had high binding affinity to human CCR8.
# [18] = target: T2, mouse CCR8; assay: flow cytometry on transfected Expi293 cells, serial dilution
# Protocol: The plasmids containing these chimeric CCR8 constructs, and human CCR8 (CCR8-hu8) and mouse CCR8 (CCR8-mo8) as control, were used to transfect Expi293™ cells for transient protein expression, after which cells were incubated with a serial dilution of the purified Ch305 as well as a reference antibody 10A11 from Shionogi (US 2022/0064312 A1). The binding of each construct was evaluated detection with Alexa Fluor 647 Rabbit Anti-Human IgG (Cat.: 309-605-008 Jackson ImmunoResearch). […] In addition, replacing the human CCR8 N-terminal region with mouse CCR8 N-terminal (CCR8_Ch1) also weakly impairs the affinity, which means human CCR8 N-terminal contributes to the binding activity of human CCR8 with Ch305. In the meanwhile, substituting mouse CCR8 N-terminal with human CCR8 N-terminal (CCR8_Ch5) rescues the binding activity of murine CCR8 with Ch305 to some extent much weaker than the binding activity of wild type human CCR8 to Ch305, which means human CCR8 N-terminal contributes but weakly or partly to the binding activity of human CCR8 with Ch305. […] In comparison, the reference antibody 10A11 binds to the N-terminal region of CCR8 only and it has no binding to ECL1, ECL2 and ECL3, that is, the epitope of 10A11 on human CCR8 locates only on N-terminal of human CCR8 (FIG. 9B).
# [19] = target: T9, human CCR8; assay: cell-based or functional assay
# T10 sequence (O97665 other isoform, or with tags, fused parts or gaps): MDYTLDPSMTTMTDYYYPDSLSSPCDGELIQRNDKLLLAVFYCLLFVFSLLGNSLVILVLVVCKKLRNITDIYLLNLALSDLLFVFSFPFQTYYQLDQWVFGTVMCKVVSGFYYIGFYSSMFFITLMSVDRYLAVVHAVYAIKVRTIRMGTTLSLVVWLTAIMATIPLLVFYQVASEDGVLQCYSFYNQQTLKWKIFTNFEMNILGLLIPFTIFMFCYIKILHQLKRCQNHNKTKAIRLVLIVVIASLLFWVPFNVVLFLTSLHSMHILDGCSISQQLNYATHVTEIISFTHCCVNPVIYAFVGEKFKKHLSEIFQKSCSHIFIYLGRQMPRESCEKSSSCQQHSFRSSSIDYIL
binder,measurement,setting,value
B1,EC50,[1],27.4 nM
same,fold change of EC50 against wild type huCCR8,[1],> 4 fold
same,EC50,[2],18.3 nM
same,fold change of EC50 against wild type huCCR8,[2],~3 fold
same,EC50,[3],25.4 nM
same,fold change of EC50 against wild type huCCR8,[3],> 4 fold
same,EC50,[4],16.8 nM
same,fold change of EC50 against wild type huCCR8,[4],> 2 fold
same,EC50,[5],26.3 nM
same,fold change of EC50 against wild type huCCR8,[5],> 4 fold
same,EC50,[6],19.4 nM
same,fold change of EC50 against wild type huCCR8,[6],~3 fold
same,EC50,[7],6.3 nM
same,loss of binding compared with wild type huCCR8,[8],> 50%
same,loss of binding compared with wild type huCCR8,[9],> 50%
same,loss of binding compared with wild type huCCR8,[10],> 50%
same,loss of binding compared with wild type huCCR8,[11],> 50%
same,loss of binding compared with wild type huCCR8,[12],> 50%
same,loss of binding compared with wild type huCCR8,[13],> 50%
B2,EC50,[14],4.1 nM
same,EC50,[15],5.01 nM
same,EC50,[16],3.67 nM
same,EC50,[17],9.37 nM
same,binding result,[18],no binding
same,"IC50 (nM), ligand blocking activity (PathHunter beta-arrestin)",[19],5.9 nM
